From patent publication US11180770B2, “HPPD variants and methods of use” (BASF Agricultural Solutions Seed US LLC, priority 2017, dated 2021)

Test system: HPPD polypeptides
Experiment: coupled HPPD activity assay: turnover and residual turnover in crude extracts
Assay type: biochemical, Pseudomonas fluorescens
Conditions: for Residual turnover [%]: 100 μM Cmpd. 1, signal change with inhibitor divided by signal change without inhibitor; for Turnover: absence of Cmpd. 1, kinetic changes in absorbance (OD) at 320 nm, 30 min; for Turnover / Residual turnover: high substrate concentration; for Residual turnover: presence of 100 μM Cmpd. 1, changes in absorbance (OD) at 320 nm
Procedure: The activity of HPPD polypeptides was determined in absence or presence of HPPD inhibitors using the coupled HPPD activity assay (FIG. 1).
For the determination of the residual activity, the apparent kinetic constant (kapp) of the determined substrate conversion was measured as kinetic changes in absorbance (OD) at 320 nm in a coupled assay, in that homogentisate (HGA) formed by HPPD from HPP is directly converted into the well absorbing molecule maleylacetoacetate (MAA) by a second enzyme homogentisate dioxygenase (HGD), applied in excess uniformly in all assays (see FIG. 1). The measurements were performed in 384 micro titer plates (Greiner Bio-One GmbH, Frickenhausen, Germany) by plate readers (Tecan infinite M1000 or M1000PRO, Tecan, Männedorf, Switzerland). The kcat/kM ratio of an enzymatic activity is proportional to the apparent kinetic constant kapp and is proportional to kcat/kM*[E] ([E]=enzyme concentration). […] As both kapp measurements in the presence and absence of inhibitor were performed by use of the identical enzyme sample, crude or purified, and thereby at the same enzyme concentration, the enzyme concentration eliminates from the calculation of residual activity and the ratio of both kapp directly indicates the change of kM due to the inhibition.
The assay solution used for determination of residual activities in raw HPPD polypeptide samples was composed by 200 mM sodium phosphate (Merck, Darmstadt, Germany, pH 7.0), 5 mM MgCl2 (Merck, Darmstadt, Germany), 20 mM ascorbate (Sigma-Aldrich, St. Louis, USA), 1 mM DTT (Sigma-Aldrich, St. Louis, USA), 0.1% Pluronic F-68 (Sigma-Aldrich, St. Louis, USA), 40 μM FeSO4 (Sigma-Aldrich, St. Louis, USA), about 8 mg/ml purified HGD and 500 μM HPP from a 1 M stock solution in DMSO (Sigma-Aldrich, St. Louis, USA) and equilibrated for 20 min on ice. For every HPPD polypeptide sample two assays were performed in quadruplets, whereby 5 μl of HPPD polypeptide sample were mixed firstly with 5 μl buffer (1×BugBuster®; (Merck, Darmstadt, Germany); in 140 mM Tris, pH 7.8, with 1:25000 diluted BNase®; Qiagen, Hilden, Germany)) or 5 μl inhibitor diluted in the same buffer from a 0.1 M stock solution in DMSO (200 μM resulting in 100 μM in the HPPD polypeptide/inhibitor sample) in the reference and inhibition assay, respectively, and subsequently with 10 μl assay solution. The change in absorbance at 320 nm was followed in 1 min intervals for 30 min. The kapp values were calculated as signal slope over time in the early phase of the kinetic reaction, usually for the first 5-10 minutes of the measurements. Additionally and according to the calculated residual activity, the total conversion, i.e. the absolute change in signal, in the 30 min timeframe was monitored as measure of turnover, and a residual turnover was calculated by dividing the change in signal in the presence of inhibitor by the change in signal in the reference sample without inhibitor.
Residual turnover were determined according to Example 3 by measuring total change in signal in the presence and absence of Cmpd. 1 (2-chloro-3-(methylsulfanyl)-N-(1-methyl-1H-tetrazol-5-yl)-4-(trifluoromethyl)benzamide). For each mutant HPPD polypeptide, the total change in signal without HPPD inhibitor herbicides served for normalization of the total change in signal in the presence of the herbicide.

Molecule | Residual turnover [%] | Turnover | Residual turnover
6 (protein, mutant HPPD polypeptide) MADLYENPMGLMGFEFIEFASPTPGTLEPIFEIMGFTKVATHRSKNVHLYRQGEINLILNNEPNSIASYFAAEHGPSVCGMAFRVKDSQKAYNRALELGAQPIHIDTGPMELNLPAIKGIGGAPLYLIDRFGEGSSIYDIDFVYLEGVERNPVGAGLKVIDHLTHNVYRGRMVYWANFYEKLFNFREARYFDIKGEYTGLTSKAMSAPDGMIRIPLNEESSKGAGQIEEFLMQFNGEGIQHVAFLTDDLVKTWDALKKIGMRFMTAPADNYYEMLEGRLPDHGEPVDQLQARGILLDGSSVEGDKRLLLQIFSETLMGPVFFEFIQRKGDDGFGPDSFKVLFESIERDQVRRGVLTAD | 50 | 0.165 | 0.082
9 (protein, mutant HPPD polypeptide) MADLYENPMGLMGFEFIEFASPTPGTLEPIFEIMGFTKVATHRSKNVHLYRQGEINLILNNEPNSIASYFAAEHGPSVCGMAFRVKDSQKAYNRALELGAQPIHIDTGPMELNLPAIKGIGGAPLYLIDRFGEGSSIYDIDFVYLEGVERNPVGAGLKVIDHLTHNVYRGRMVYWANFYEKLFNFREARYFDIKGEYTGLTSKAMSAPDGMIRIPLNEESSKGAGQIEEFLMQFNGEGIQHVAFLTDDLVKTWDALKKIGMRFMTAPADTYYEMLEGRLPDHGEPVDQLQARGILLDGSSVEGDKRLLLQIFSETLMGPVFFEFIQRKGDDGFGPDSFKVLFESVERDQVRRGVLTAD | 52 | 0.102 | 0.053
11 (protein, mutant HPPD polypeptide) MADLYENPMGLMGFEFIEFASPTPGTLEPIFEIMGFTKVATHRSKNVHLYRQGEINLILNNEPNSIASYFAAEHGPSVCGMAFRVKDSQKAYNRALELGAQPIHIDTGPMELNLPAIKGIGGAPLYLIDRFGEGSSIYDIDFVYLEGVERNPVGAGLKVIDHLTHNVYRGRMVYWANFYEKLFNFREARYFDIKGEYTGLTSKAMSAPDGMIRIPLNEESSKGAGQIEEFLMQFNGEGIQHVAFLTDDLVKTWDALKKIGMRFMTAPPDTYYEMLEGRLPDHGEPVDQLQARGILLDGSSVEGDKRLLLQIFSETLMGPVFFEFIQRKGDDGFGPDSFKVLFESVERDQVRRGVLTAD | 44 | 0.160 | 0.071
14 (protein, mutant HPPD polypeptide) MADLYENPMGLMGFEFIEFASPTPGTLEPIFEIMGFTKVATHRSKNVHLYRQGEINLILNNEPNSIASYFAAEHGPSVCGMAFRVKDSQKAYNRALELGAQPIHIDTGPMELNLPAIKGIGGAPLYLIDRFGEGSSIYDIDFVYLEGVERNPVGAGLKVIDHLTHNVYRGRMVYWANFYEKLFNFREARYFDIKGEYTGLTSKAMSAPDGMIRIPLNEESSKGAGQIEEFLMQFNGEGIQHVAFLTDDLVKTWDALKKIGMRFMTAPPDNYYEMLEGRLPDHGEPVDQLQARGILLDGSSVEGDKRLLLQIFSETLMGPVFFEFIQRKGDDGFGPDSFKVLFESVERDQVRRGVLTAD | 33 | 0.188 | 0.062
10 (protein, mutant HPPD polypeptide) MADLYENPMGLMGFEFIEFASPTPGTLEPIFEIMGFTKVATHRSKNVHLYRQGEINLILNNEPNSIASYFAAEHGPSVCGMAFRVKDSQKAYNRALELGAQPIHIDTGPMELNLPAIKGIGGAPLYLIDRFGEGSSIYDIDFVYLEGVERNPVGAGLKVIDHLTHNVYRGRMVYWANFYEKLFNFREARYFDIKGEYTGLTSKAMSAPDGMIRIPLNEESSKGAGQIEEFLMQFNGEGIQHVAFLTDDLVKTWDALKKIGMRFMTAPGDTYYEMLEGRLPDHGEPVDQLQARGILLDGSSVEGDKRLLLQIFSETLMGPVFFEFIQRKGDDGFGPDSFKVLFESVERDQVRRGVLTAD | 56 | 0.125 | 0.070
7 (protein, mutant HPPD polypeptide) MADLYENPMGLMGFEFIEFASPTPGTLEPIFEIMGFTKVATHRSKNVHLYRQGEINLILNNEPNSIASYFAAEHGPSVCGMAFRVKDSQKAYNRALELGAQPIHIDTGPMELNLPAIKGIGGAPLYLIDRFGEGSSIYDIDFVYLEGVERNPVGAGLKVIDHLTHNVYRGRMVYWANFYEKLFNFREARYFDIKGEYTGLTSKAMSAPDGMIRIPLNEESSKGAGQIEEFLMQFNGEGIQHVAFLTDDLVKTWDALKKIGMRFMTAPGDNYYEMLEGRLPDHGEPVDQLQARGILLDGSSVEGDKRLLLQIFSETLMGPVFFEFIQRKGDDGFGPDSFKVLFESIERDQVRRGVLTAD | 42 | 0.149 | 0.063
12 (protein, mutant HPPD polypeptide) MADLYENPMGLMGFEFIEFASPTPGTLEPIFEIMGFTKVATHRSKNVHLYRQGEINLILNNEPNSIASYFAAEHGPSVCGMAFRVKDSQKAYNRALELGAQPIHIDTGPMELNLPAIKGIGGAPLYLIDRFGEGSSIYDIDFVYLEGVERNPVGAGLKVIDHLTHNVYRGRMVYWANFYEKLFNFREARYFDIKGEYTGLTSKAMSAPDGMIRIPLNEESSKGAGQIEEFLMQFNGEGIQHVAFLTDDLVKTWDALKKIGMRFMTAPADNYYEMLEGRLPDHGEPVDQLQARGILLDGSSVEGDKRLLLQIFSETLMGPVFFEFIQRKGDDGFGPDSFKVLFESVERDQVRRGVLTAD | 50 | 0.115 | 0.058
13 (protein, mutant HPPD polypeptide) MADLYENPMGLMGFEFIEFASPTPGTLEPIFEIMGFTKVATHRSKNVHLYRQGEINLILNNEPNSIASYFAAEHGPSVCGMAFRVKDSQKAYNRALELGAQPIHIDTGPMELNLPAIKGIGGAPLYLIDRFGEGSSIYDIDFVYLEGVERNPVGAGLKVIDHLTHNVYRGRMVYWANFYEKLFNFREARYFDIKGEYTGLTSKAMSAPDGMIRIPLNEESSKGAGQIEEFLMQFNGEGIQHVAFLTDDLVKTWDALKKIGMRFMTAPGDNYYEMLEGRLPDHGEPVDQLQARGILLDGSSVEGDKRLLLQIFSETLMGPVFFEFIQRKGDDGFGPDSFKVLFESVERDQVRRGVLTAD |  | 0.024 | 
8 (protein, mutant HPPD polypeptide) MADLYENPMGLMGFEFIEFASPTPGTLEPIFEIMGFTKVATHRSKNVHLYRQGEINLILNNEPNSIASYFAAEHGPSVCGMAFRVKDSQKAYNRALELGAQPIHIDTGPMELNLPAIKGIGGAPLYLIDRFGEGSSIYDIDFVYLEGVERNPVGAGLKVIDHLTHNVYRGRMVYWANFYEKLFNFREARYFDIKGEYTGLTSKAMSAPDGMIRIPLNEESSKGAGQIEEFLMQFNGEGIQHVAFLTDDLVKTWDALKKIGMRFMTAPPDNYYEMLEGRLPDHGEPVDQLQARGILLDGSSVEGDKRLLLQIFSETLMGPVFFEFIQRKGDDGFGPDSFKVLFESIERDQVRRGVLTAD | 50 | 0.107 | 0.054
